Measured values taken from patent US20230203146A1 (Boehringer Ingelheim, published 2023).
Read-outs that look alike come from different tables or passages of the source.

T1: FLAG-tagged mouse Ang2 (mouse, UniProt O35608 19-496)
T1 construct: N-terminally FLAG-tagged, conditioned medium of HEK293T cells; also called mAng2; FLAG-mAng2
T1 sequence: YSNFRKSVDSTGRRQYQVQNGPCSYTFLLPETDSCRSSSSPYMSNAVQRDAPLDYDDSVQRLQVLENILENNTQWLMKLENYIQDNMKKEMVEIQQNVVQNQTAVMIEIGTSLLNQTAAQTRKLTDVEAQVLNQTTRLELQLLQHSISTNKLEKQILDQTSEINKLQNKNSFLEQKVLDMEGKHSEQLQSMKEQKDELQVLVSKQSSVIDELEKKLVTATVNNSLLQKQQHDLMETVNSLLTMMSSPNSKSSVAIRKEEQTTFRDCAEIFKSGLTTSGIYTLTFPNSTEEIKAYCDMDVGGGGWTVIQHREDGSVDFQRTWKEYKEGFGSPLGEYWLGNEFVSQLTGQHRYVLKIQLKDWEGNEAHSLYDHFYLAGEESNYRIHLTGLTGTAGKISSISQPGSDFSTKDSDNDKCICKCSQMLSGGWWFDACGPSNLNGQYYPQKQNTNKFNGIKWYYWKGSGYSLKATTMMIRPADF

T2: FLAG-tagged cynomolgus Ang2 (cynomolgus, UniProt O15123 19-496 (human entry), limits assumed)
T2 construct: N-terminally FLAG-tagged, conditioned medium of HEK293T cells; also called cAng2; FLAG-cAng2
T2 chain: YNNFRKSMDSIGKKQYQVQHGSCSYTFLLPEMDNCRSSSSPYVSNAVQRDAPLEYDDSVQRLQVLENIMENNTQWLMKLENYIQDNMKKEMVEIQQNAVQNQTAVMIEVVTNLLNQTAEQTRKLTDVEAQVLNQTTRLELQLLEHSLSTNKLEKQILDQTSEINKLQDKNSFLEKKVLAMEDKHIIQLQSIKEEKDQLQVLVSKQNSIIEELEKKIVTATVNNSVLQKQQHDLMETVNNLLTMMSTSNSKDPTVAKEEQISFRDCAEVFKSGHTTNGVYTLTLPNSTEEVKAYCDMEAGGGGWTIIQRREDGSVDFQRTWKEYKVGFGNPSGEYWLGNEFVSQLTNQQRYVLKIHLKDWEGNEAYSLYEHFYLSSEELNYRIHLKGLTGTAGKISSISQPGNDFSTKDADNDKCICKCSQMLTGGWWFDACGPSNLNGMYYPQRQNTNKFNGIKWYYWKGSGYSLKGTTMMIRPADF

T3: recombinant mouse Ang2-FLD (mouse, UniProt O35608 275-496, limits assumed)
T3 construct: domain: FLD
T3 sequence (looked up): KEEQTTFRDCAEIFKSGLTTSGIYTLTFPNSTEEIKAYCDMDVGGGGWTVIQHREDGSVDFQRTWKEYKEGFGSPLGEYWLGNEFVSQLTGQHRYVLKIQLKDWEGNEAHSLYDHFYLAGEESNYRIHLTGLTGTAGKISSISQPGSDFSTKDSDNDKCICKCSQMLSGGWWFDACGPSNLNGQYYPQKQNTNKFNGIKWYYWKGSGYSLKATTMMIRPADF

T4: recombinant rat Ang2-FLD (rat, UniProt O35462 275-496, limits assumed)
T4 construct: domain: FLD
T4 sequence (looked up): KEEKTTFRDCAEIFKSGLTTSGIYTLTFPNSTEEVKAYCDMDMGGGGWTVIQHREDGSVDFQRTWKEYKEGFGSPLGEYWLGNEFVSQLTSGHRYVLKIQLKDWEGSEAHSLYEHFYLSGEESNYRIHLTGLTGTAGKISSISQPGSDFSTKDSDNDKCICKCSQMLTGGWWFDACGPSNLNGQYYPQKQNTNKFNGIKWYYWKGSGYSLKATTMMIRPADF

T5: recombinant human Ang2-FLD (human, UniProt O15123 275-496, limits assumed)
T5 construct: domain: FLD
T5 sequence (looked up): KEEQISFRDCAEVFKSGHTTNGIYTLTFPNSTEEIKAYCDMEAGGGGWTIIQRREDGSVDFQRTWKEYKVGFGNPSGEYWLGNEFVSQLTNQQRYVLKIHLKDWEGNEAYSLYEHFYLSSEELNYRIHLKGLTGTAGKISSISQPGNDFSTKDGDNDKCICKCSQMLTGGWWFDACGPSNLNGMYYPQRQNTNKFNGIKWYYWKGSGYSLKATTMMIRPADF

T6: recombinant cynomolgus Ang2-FLD (cynomolgus, UniProt A0A2K5VNX6 275-496)
T6 construct: domain: FLD; also called cyno Ang2-FLD
T6 sequence: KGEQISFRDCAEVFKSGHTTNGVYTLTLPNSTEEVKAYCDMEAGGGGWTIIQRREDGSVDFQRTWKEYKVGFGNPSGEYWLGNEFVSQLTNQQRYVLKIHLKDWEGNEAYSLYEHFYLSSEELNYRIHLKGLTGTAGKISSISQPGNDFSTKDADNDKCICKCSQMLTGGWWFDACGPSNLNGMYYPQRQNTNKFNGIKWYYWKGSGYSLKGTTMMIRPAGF


Tests used:
FLAG-tagged mouse Ang2 [1] = biological target: T1, FLAG-tagged mouse Ang2; assay: competition ELISA: FLAG-mAng2 binding to coated mTie2-Fc
Method: (§1) In brief, 2 μg/mL of recombinant mouse Tie2-Fc or cyno Tie2-Fc is coated overnight at 4° C. in a 96-well MaxiSorp plate (Nunc, Wiesbaden, Germany). Coated wells are blocked with a 1% casein solution.

[2] = biological target: T2, FLAG-tagged cynomolgus Ang2; assay: competition ELISA: FLAG-cAng2 binding to coated cTie2-Fc
Method: as §1

FLAG-tagged mouse Ang2 [3] = biological target: T1, FLAG-tagged mouse Ang2; assay: competition ELISA: FLAG-mAng2 binding to coated mTie2-Fc; remark: listed apart in the source
Method: as §1

[4] = biological target: T2, FLAG-tagged cynomolgus Ang2; assay: competition ELISA: FLAG-cAng2 binding to coated cTie2-Fc
Method: as §1

[5] = biological target: T3, recombinant mouse Ang2-FLD; assay: SPR (Biacore T100), VHH immobilized, Ang2-FLD injected
recombinant rat Ang2-FLD = biological target: T4, recombinant rat Ang2-FLD; assay: as above
[6] = biological target: T5, recombinant human Ang2-FLD; assay: as above
[7] = biological target: T6, recombinant cynomolgus Ang2-FLD; assay: as above

Row | IC50 (FLAG-tagged mouse Ang2 [1]) [nM] | IC50 [2] [nM] | IC50 (FLAG-tagged mouse Ang2 [3]) [nM] | IC50 [4] [nM] | Kd [5] [nM] | koff [5] [s⁻¹] | kon [5] [M⁻¹ s⁻¹] | Kd (recombinant rat Ang2-FLD) [nM] | koff (recombinant rat Ang2-FLD) [s⁻¹] | kon (recombinant rat Ang2-FLD) [M⁻¹ s⁻¹] | Kd [6] [nM] | koff [6] [s⁻¹] | kon [6] [M⁻¹ s⁻¹] | Kd [7] [nM] | koff [7] [s⁻¹] | kon [7] [M⁻¹ s⁻¹] | Binder
1 | 5.7 | 2.1 | 5.7 | 2.1 |  |  |  |  |  |  |  |  |  |  |  |  | VHH 28D10 (VHH, not shown: small tags and cut ends, Parental llama VHH; also called 028D10) VHH: EVQLVESGGGLVQAGGSLRLSCAASGFTLDDYAIGWFRQAPGKEREGVSCIRDSDGSTYYADSVKGRFTISSDNDKNTVYLQMNSLKPEDTAVYYCAAVPAGRLRFGEQWYPLYEYDAWGQGTQVTVSS
2 | 1.8 |  |  | 0.7 | 3 | 0.0039 | 1.3e+06 | 10 | 0.005 | 500000 | 1.6 | 0.0015 | 950000 | 0.54 | 0.0012 | 2.3e+06 | VHH 00919 (VHH, not shown: small tags and cut ends) VHH: EVQLVESGGGLVQPGGSLRLSCAASGFTLDDYAIGWFRQAPGKEREGVSAIRDNGGSTYYADSVKGRFTISSDNSKNTVYLQMNSLRPEDTAVYYCAAVPAGRLRFGEQWYPLYEYDAWGQGTLVTVSS
